Like-named read-outs stand apart in the source and are kept apart here.

Series [1] has as its system CYP3A4. Nature of the series: Testosterone 6β-hydroxylase assay, bacterial membrane fractions. The conditions noted are these: in the presence of cumene hydroperoxide, no reductase. The class given is biochemical, human.
Target sequence in this assay (P08684 19-503 limits assumed): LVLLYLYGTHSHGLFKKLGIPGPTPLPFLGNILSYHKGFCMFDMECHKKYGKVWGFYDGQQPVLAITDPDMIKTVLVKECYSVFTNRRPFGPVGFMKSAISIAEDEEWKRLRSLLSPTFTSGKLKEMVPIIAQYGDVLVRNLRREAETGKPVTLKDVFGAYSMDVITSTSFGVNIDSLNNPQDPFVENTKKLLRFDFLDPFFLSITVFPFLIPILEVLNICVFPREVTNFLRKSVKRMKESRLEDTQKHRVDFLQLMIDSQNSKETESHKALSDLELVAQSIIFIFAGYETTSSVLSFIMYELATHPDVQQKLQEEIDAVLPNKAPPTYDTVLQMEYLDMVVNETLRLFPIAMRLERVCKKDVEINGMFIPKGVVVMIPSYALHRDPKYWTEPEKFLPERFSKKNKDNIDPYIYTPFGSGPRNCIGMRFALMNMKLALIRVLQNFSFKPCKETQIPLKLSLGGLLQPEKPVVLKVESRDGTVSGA
Protocol: Assays were carried out with cells and membrane fractions. In both cases, approximately 100 pmol P450 was incubated with shaking in TSE containing 30 mM MgCl2. The final testosterone concentration was 0.2 mM. Where membranes were used, an NADPH generating system was is added (final concentration 1 mM NADP, 5 mM glucose-6-phosphate, 1 unit glucose-6-phosphate dehydrogenase). Reactions were carried out at 37° C. for 5 minutes, then stopped by addition of 1 ml ice-cold methanol and placed on ice for 10 minutes. Following centrifugation, supernatants were diluted with an equal volume of ice-cold water, and the testosterone metabolites extracted using Isolute C18 columns (IST Ltd), and eluted in 1 ml methanol. […] The yield of the 6β-hydroxytestosterone was calculated by reference to a standard of known concentration, and this allowed determination of the specific activity of the recombinant CYP3A4 towards testosterone.
Direct determination of the catalytic activity of the expressed proteins was not possible due to the absence of P450 reductase in bacterial membranes. The P450 enzyme activity was therefore determined in the presence of cumene hydroperoxide which serves as an artificial oxygen donor for P450s.
Series [2] has as its target T1, human P450 reductase fused at its N-terminus to the bacterial pelB leader sequence (bacterial; human) (UniProt P16435).
T1 sequence: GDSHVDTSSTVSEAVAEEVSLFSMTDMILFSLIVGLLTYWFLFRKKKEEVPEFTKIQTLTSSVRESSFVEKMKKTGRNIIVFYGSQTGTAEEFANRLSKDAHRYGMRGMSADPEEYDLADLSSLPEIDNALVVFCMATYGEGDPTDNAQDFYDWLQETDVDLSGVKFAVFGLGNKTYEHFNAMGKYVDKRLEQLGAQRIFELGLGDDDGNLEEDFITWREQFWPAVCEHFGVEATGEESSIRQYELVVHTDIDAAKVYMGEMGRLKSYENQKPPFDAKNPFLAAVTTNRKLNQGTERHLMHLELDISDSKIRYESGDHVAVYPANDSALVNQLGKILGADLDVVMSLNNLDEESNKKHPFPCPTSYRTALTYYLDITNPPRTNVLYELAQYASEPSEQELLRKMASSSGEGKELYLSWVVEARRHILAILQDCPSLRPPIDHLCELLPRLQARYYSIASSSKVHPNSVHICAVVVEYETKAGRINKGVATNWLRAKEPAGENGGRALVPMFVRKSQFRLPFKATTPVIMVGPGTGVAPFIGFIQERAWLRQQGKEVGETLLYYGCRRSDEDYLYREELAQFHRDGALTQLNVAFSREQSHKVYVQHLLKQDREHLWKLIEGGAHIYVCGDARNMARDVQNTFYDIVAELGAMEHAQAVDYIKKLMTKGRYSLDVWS
Kind of series: cell-based or functional assay.

Series [3] concerns the target bacterial flavodoxin/NADPH-flavodoxin reductase system or another bacterial reductase. Kind of series: cell-based or functional assay.
Series [4] deals with CYP3A4. The conditions noted are these: reconstituted system, Gillam et al (1993); cited from earlier work.
For series [5], the target named is T1, human P450 reductase fused at its N-terminus to the bacterial pelB leader sequence (bacterial; human). Kind of series: cell-based or functional assay. The source holds these as a separate data set.
Series [6] concerns the target T2, human P450 reductase fused at its N-terminus to the bacterial pelB leader sequence, P16435.
T2 chain: T1 sequence

In series [7] the target is T3, CYP2D6 (Homo sapiens, UniProt P10635).
T3 construct: in frame to the 5′-end of the full length P450 cDNA; made in house; host or cells: E. coli JM109, membrane fractions
Kind of series: Bufuralol 1′-hydroxylase assay, whole cells. Format: cell-based. The method, then:
Assays on whole cells were carried out at 37° C. in 50 ml conical flasks, and contained 50 pmol CYP2D6, 50 μM (±)-bufuralol and 1×TSE buffer in a total volume of 5 ml. Samples (300 μl) were withdrawn at 0, 2, 5 and 10 min into tubes containing 15 μl of 60% perchloric acid on ice. Analysis then proceeded in an identical manner to the membrane assays (see above).

Series [8] addresses T4, P450 reductase (Homo sapiens, UniProt P16435).
T4 sequence (P16435 with tags, fused parts or gaps): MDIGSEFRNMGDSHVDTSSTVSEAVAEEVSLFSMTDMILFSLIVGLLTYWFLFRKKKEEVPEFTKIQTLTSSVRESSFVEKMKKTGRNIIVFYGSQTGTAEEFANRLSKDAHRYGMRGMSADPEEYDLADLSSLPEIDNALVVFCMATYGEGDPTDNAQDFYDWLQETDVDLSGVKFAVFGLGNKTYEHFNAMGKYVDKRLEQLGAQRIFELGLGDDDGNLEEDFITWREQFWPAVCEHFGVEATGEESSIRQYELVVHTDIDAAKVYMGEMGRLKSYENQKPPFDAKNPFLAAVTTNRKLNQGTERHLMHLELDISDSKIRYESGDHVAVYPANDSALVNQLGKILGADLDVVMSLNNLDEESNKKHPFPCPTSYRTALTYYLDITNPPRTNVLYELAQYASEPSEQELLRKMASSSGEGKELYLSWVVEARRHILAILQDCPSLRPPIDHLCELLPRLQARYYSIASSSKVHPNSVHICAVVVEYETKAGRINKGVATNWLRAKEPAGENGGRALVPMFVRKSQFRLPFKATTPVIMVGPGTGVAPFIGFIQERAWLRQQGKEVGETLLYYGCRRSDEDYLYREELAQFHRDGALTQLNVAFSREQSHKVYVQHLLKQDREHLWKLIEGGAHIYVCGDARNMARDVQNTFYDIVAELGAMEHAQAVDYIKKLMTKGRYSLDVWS
Protocol: (§1) An equal volume of ice-cold distilled water was then added. The CYP3A4 content was determined using Fe^2—CO vs Fe^2+ difference spectra by adding 50 μl whole cell suspension in 1×TSE to 950 μl 100 mM Tris. Cl (pH 7.4), 10 mM CHAPS, 20% v/v glycerol, 1 mM EDTA and reducing by adding a few grains of sodium dithionite. A baseline of zero absorbance was recorded between 500 and 400 nm, then the sample cuvette was bubbled under a steady stream of CO for about 1 minute. A spectrum was then recorded and the yield of spectrally active CYP3A4/1 culture determined. At this stage, an aliquot of whole cells was withdrawn for metabolism studies. […] The CYP3A4 and reductase content of the membranes was determined. The yield of active reductase was evaluated by a spectrophotometric assay, as follows. To 990 μl 50 μM cytochrome c in 0.3 M potassium phosphate buffer (pH 7.7), 1-10 μg membrane protein was added, and a baseline recorded. 50 μM NADPH was added and ΔA550 nm was recorded over time. To determine the P450 contents of membranes, spectra were obtained as for whole cells.

The target of series [9] is T3, CYP2D6. The class given is biochemical. The method, then:
Assays on bacterial membrane fractions were carried out at 37° C. in 50 mM potassium phosphate buffer, pH 7.4, containing 20 or 50 pmol CYP2D6, 50 μM (±)-bufuralol, and a NADPH regenerating system (see Example 1) in a total volume of 300 μl. For membranes isolated from cells carrying pCW/ompA-CYP2D6 only (ie. no reductase co-expressed), the NADPH regenerating system was replaced by 100 μM cumene hydroperoxide. Reactions were stopped by the addition of 15 μl of 60% perchloric acid and placed on ice for 5-10 min. Precipitated proteins were removed by centrifugation, and then the supernatants were analysed for 1′-hydroxybufuralol by reversed-phase HPLC, with reference to authentic standard. Separation was achieved using a Spherisorb 5 μm ODS-2 column 25 cm×4.6 mm, and a mobile phase of 0.1 M ammonium acetate (pH 5.0) with a linear gradient of acetonitrile (27 to 51% in 12 min). Detection was by fluorescence using excitation and emission wavelengths of 252 and 302 nm, respectively.
For the determination of Michaelis-Menten kinetic parameters, incubations were carried out for 5 min with 20 pmol CYP2D6 and varying concentrations of substrate (0 to 100 μM). Km and νmax were estimated from double-reciprocal plots of initial reaction velocity versus substrate concentration.

Series [10] has as its system P450 reductase. Nature of the series: Cytochrome c reductase activity of bacterial membrane fractions. The conditions noted are these: membranes, expression from pCW, towards cytochrome c (FIG. 4).
Protocol: as §1

Consider “ompA-CYP3A4: CYP3A4 fused at its N-terminus to the bacterial ompA leader sequence”, for which the “turnover number for the 6β-hydroxylation of testosterone” value in [1] was found to be 3.2 min⁻¹.

“17α-CYP3A4 (optimised CYP3A4 expressed from NF14 / pB216) (from UniProt P08684 1-503) (enzyme)”: in series [2], the nifedipine oxidase turnover, JM109 pB216 whole cells turned out to be 15.2 min^-1 and the testosterone 6β-hydroxylase turnover, JM109 pB216 whole cells is 17.3 min^-1. The testosterone 6β-hydroxylase turnover, JM109 NF14 whole cells (CYP3A4 alone) in [3] is under 0.5 min⁻¹.

As for “bacterially-expressed CYP3A4: reconstituted system containing bacterially-expressed CYP3A4, Gillam et al (1993)”, in [4], the “turnover rates, testosterone 6β-hydroxylation” value is “up to 10 nmol 6β-hydroxytestosterone/minute/nmol P450”.

B1: ompA(+2)-CYP2A6 (enzyme, human)
chain: APMLASGMLLVALLVCLTVMVLMSVWQQRKSKGKLPPGPTPLPFIGNYLQLNTEQMYNSLMKISERYGPVFTIHLGPRRVVVLCGHDAVREALVDQAEEFSGRGEQATFDWVFKGYGVVFSNGERAKQLRRFSIATLRDFGVGKRGIEERIQEEAGFLIDALRGTGGANIDPTFFLSRTVSNVISSIVFGDRFDYKDKEFLSLLRMMLGIFQFTSTSTGQLYEMFSSVMKHLPGPQQQAFQLLQGLEDFIAKKVEHNQRTLDPNSPRDFIDSFLIRMQEEEKNPNTEFYLKNLVMTTLNLFIGGTETVSTTLRYGFLLLMKHPEVEAKVHEEIDRVIGKNRQPKFEDRAKMPYMEAVIHEIQRFGDVIPMSLARRVKKDTKFRDFFLPKGTEVYPMLGSVLRDPSFFSNPQDFNPQHFLNEKGQFKKSDAFVPFSIGKRNCFGEGLARMELFLFFTTVMQNFRLKSSQSPKDIDVSPKHVGFATIPRNYTMSFLPR
In turn, B1 registered a coumarin 7-hydroxylase activity, shocked cells (nmol/min/nmol P450) in series [5] of 0.29. The coumarin 7-hydroxylase activity, membranes in series [6] stood at 1.

B2: 17α-CYP2A6 (protein)
chain: MLASGMLLVALLVCLTVMVLMSVWQQRKSKGKLPPGPTPLPFIGNYLQLNTEQMYNSLMKISERYGPVFTIHLGPRRVVVLCGHDAVREALVDQAEEFSGRGEQATFDWVFKGYGVVFSNGERAKQLRRFSIATLRDFGVGKRGIEERIQEEAGFLIDALRGTGGANIDPTFFLSRTVSNVISSIVFGDRFDYKDKEFLSLLRMMLGIFQFTSTSTGQLYEMFSSVMKHLPGPQQQAFQLLQGLEDFIAKKVEHNQRTLDPNSPRDFIDSFLIRMQEEEKNPNTEFYLKNLVMTTLNLFIGGTETVSTTLRYGFLLLMKHPEVEAKVHEEIDRVIGKNRQPKFEDRAKMPYMEAVIHEIQRFGDVIPMSLARRVKKDTKFRDFFLPKGTEVYPMLGSVLRDPSFFSNPQDFNPQHFLNEKGQFKKSDAFVPFSIGKRNCFGEGLARMELFLFFTTVMQNFRLKSSQSPKDIDVSPKHVGFATIPRNYTMSFLPR
The molecule B2 showed a coumarin 7-hydroxylase activity, shocked cells (nmol/min/nmol P450) in series [2] of 0.75.

B3: ompA-CYP2A6 (enzyme, human)
chain: B2 chain
As for B3, the coumarin 7-hydroxylase activity, shocked cells (nmol/min/nmol P450) in series [5] is under 0.02.

B4: ompA-CYP2D6 (protein)
chain: MGLEALVPLAVIVAIFLLLVDLMHRRQRWAARYPPGPLPLPGLGNLLHVDFQNTPYCFDQLRRRFGDVFSLQLAWTPVVVLNGLAAVREALVTHGEDTADRPPVPITQILGFGPRSQGVFLARYGPAWREQRRFSVSTLRNLGLGKKSLEQWVTEEAACLCAAFANHSGRPFRPNGLLDKAVSNVIASLTCGRRFEYDDPRFLRLLDLAQEGLKEESGFLREVLNAVPVLLHIPALAGKVLRFQKAFLTQLDELLTEHRMTWDPAQPPRDLTEAFLAEMEKAKGNPESSFNDENLRIVVADLFSAGMVTTSTTLAWGLLLMILHPDVQRRVQQEIDDVIGQVRRPEMGDQAHMPYTTAVIHEVQRFGDIVPLGVTHMTSRDIEVQGFRIPKGTTLITNLSSVLKDEAVWEKPFRFHPEHFLDAQGHFVKPEAFLPFSAGRRACLGEPLARMELFLFFTSLLQHFSFSVPTGQPRPSHHGVFAFLVSPSPYELCAVPR
For the molecule B4, in series [7], the “bufuralol 1′-hydroxylase activity, intact E. coli” value was determined as 1.2 nmoles/min/mg protein. In addition, the “turnover number, bufuralol hydroxylation, intact bacteria” value in [7] (co-expressed with pelB-reductase, 50 μM bufuralol, no added NADPH) was 4.6 min⁻¹. Further, the “bufuralol 1′-hydroxylase activity, fold higher than average of a panel of human liver microsomes” value in series [7] (intact E. coli) is on record as “about 20 fold”. Besides, the “cytochrome c reductase activity” value in [8] was determined as 530 nmol/min/mg. Further, in [6], the “CYP2D6-dependent activities on co-expression” value is listed as “couples well with co-expressed reductase, catalysing typical CYP2D6-dependent activities”; the “Vmax of bufuralol 1'-hydroxylation, membranes co-expressing both” value turned out to be 13.3 min⁻¹; the “bufuralol 1'-hydroxylase specific activity” value was 1.2 nmoles/min/mg membrane protein; the “bufuralol 1'-hydroxylation turnover number, intact bacteria” value is “turnover numbers of 4.6 min^-1 and 5.7 min^-1 respectively”. In addition, the “bufuralol 1'-hydroxylation turnover number, membranes” value in series [6] is “turnover numbers of 4.6 min^-1 and 5.7 min^-1 respectively”. Also, in [9], the Km (commonly the concentration of substrate that gives half-maximal velocity) is 11.1 µM; the “Vmax, bufuralol 1′-hydroxylation” value came out at 13.3 min⁻¹; the “specific activity, bufuralol hydroxylation” value was 1.2 nmoles/min/mg membrane protein; the “specific activity, fold higher than the value reported for human liver microsomes” value is 40 fold.

B5: pelB-reductase: human P450 reductase fused at its N-terminus to the pelB leader sequence (protein)
chain: T1 sequence
modifications: left off: small tags and cut ends
Regarding B5, the “reductase activity compared to the native P450 reductase” value in series [10] is recorded as “almost ten fold higher”.

The record behind these values is patent publication US9255256B2, “Expression of functional cytochorome P450 monooxygenase system in enterobacteria” (priority 1996, dated 2016).
